Reference: patent publication US20230312739A1 (BIOTHEUS, published 2023)

T1: human CD73 on the cell surface (tumor cells endogenously expressing human CD73; CHOS-human CD73) (human, UniProt P21589 27-549)
T1 construct: The endogenous CD73 of the human tumor lines (MDA-MB-231, Calu6, SK-ME-S, H2030, SKLU1, BT549, A375, HCC44) is treated as the same protein
T1 sequence: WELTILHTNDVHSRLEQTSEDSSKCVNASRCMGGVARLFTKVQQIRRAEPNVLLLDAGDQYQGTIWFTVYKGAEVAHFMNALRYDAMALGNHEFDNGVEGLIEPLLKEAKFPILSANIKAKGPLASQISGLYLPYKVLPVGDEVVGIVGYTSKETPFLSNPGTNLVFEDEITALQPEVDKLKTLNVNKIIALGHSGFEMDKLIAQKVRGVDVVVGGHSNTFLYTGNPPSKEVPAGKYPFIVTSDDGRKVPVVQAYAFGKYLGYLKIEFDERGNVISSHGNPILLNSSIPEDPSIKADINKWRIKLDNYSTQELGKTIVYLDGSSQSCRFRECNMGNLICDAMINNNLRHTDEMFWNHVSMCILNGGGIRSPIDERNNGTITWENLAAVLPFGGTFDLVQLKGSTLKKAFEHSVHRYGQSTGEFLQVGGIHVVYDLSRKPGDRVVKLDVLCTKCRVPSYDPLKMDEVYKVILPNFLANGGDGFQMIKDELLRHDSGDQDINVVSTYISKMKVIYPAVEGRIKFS

T2: recombinant human CD73 protein (Baiying Bio) (human, UniProt P21589 27-549)
T2 construct: Bought protein; also called soluble recombinant CD73; soluble human CD73 protein
T2 sequence: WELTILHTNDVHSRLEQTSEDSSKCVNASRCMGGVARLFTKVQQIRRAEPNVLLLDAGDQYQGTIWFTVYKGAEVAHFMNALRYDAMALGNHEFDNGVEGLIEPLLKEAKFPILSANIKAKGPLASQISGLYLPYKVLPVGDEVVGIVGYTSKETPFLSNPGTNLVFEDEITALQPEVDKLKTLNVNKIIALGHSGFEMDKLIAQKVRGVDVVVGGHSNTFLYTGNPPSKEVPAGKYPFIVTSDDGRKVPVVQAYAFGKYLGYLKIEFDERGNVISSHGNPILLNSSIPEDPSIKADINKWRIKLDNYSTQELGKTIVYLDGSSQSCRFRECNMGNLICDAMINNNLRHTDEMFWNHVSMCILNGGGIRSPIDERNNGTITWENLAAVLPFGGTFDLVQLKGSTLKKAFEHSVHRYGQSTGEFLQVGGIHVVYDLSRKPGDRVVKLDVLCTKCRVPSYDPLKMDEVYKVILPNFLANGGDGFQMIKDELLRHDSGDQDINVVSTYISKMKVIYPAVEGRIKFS


Columns and labels:
[1] = biological target: CD73 on cynomolgus macaques CD3+CD8+ T cells (cynomolgus macaques); experiment: flow cytometry on cynomolgus macaque PBMC, CD3+CD8+ T cells, donor 1132F
[2] = biological target: CD73 on cynomolgus macaques CD3+CD8+ T cells (cynomolgus macaques); experiment: flow cytometry on cynomolgus macaque PBMC, CD3+CD8+ T cells, donor 1300M
[3] = biological target: T1, human CD73 on the cell surface (tumor …); experiment: flow cytometry, MFI, MDA-MB-231 cells expressing human CD73
Experimental: (§1) 500,000 CD73-expressing cells (see Example 2) were placed in 100 μL of FACS buffer (PBS+2% FBS)/well for later use in a round-bottom low adsorption 96-well plate. The antibody sample was subjected to serial 3-fold dilutions at 12 points by diluting ½ of the total volume (100 μL) in 200 μL of FACS buffer. 100 μL of the diluted antibody was added to each well of the cell plate, 100 μL of FACS buffer was added to the corresponding negative control well, and incubation was performed at 4° C. for 1 hour. […] After staining, the supernatant was removed by centrifugation, washing was performed twice with FACS buffer, and 100 μL of FACS buffer was added to each well to resuspend the cells, and then reading was performed on flow cytometry. The cells in the plate were measured using a flow cytometer (BD, model ACCURI C6 PLUS). During the measurement, the cells were first gated according to FCS and SSC, and then analyzed by the green fluorescence channel (FITC) corresponding to the secondary antibody and SSC. GraphPad was used for data analysis, wherein the abscissa indicated the logarithm of antibody concentration, the ordinate indicated mean fluorescence intensity, and the EC50 value of the anti-CD73 antibody was obtained by curve fitting.

[4] = biological target: T2, recombinant human CD73 protein (Baiying …); experiment: SPR, Biacore T200 at 25 C, antibody captured on Protein A chip, CD73 protein as analyte, 1:1 model
Experimental: The antibody was diluted with running buffer 1*HBS-EP+ to 1 μg/ml, and was captured onto the chip surface (Protein A chip, GE, Cat #29127556) at a flow rate of 10 μl/min for 30 s. Then, a series of concentrations of CD73 protein (Baiying Bio, recombinant human CD73 protein) were injected into antibody channel at a flow rate of 30 μl/min, for association of 180 s, followed by dissociation for 900 s. 10 mM pH 1.5 Gly-HCl was used for regeneration. The sensorgram data was fitted using a 1:1 dynamic binding model.

[5] = biological target: T2, recombinant human CD73 protein (Baiying …); experiment: ELISA, 1 ug/ml recombinant human CD73 coated, HRP-coupled anti-IgG Fc secondary antibody, OD450
Experimental: 1 μg/ml recombinant human CD73 protein (Baiying Bio, recombinant human CD73 protein) was coated on an ELISA plate in PBS for overnight at 4° C. The plate was washed 3 times with washing buffer (PBS, 0.05% Tween-20), and non-specific sites were blocked by adding 200 μl/well PBS+2% BSA. 100 μL of the anti-CD73 antibody in a dose range of gradient dilution was added to the ELISA plate coated with the antigen, and incubated at 37° C. for 1 h. The plate was washed 3 times in washing buffer, and HRP-coupled goat anti-human or goat anti-mouse IgG Fc fragment secondary antibody was added for 1 h at room temperature to detect the captured anti-CD73 antibody. […] The enzymatic reaction was stopped by adding 1M sulfuric acid solution, and the light absorption was measured at 450 nm. The graph was plotted with the absorbance value on the ordinate and the log value of antibody concentration on the abscissa, and the EC50 was calculated using GraphPad Prism software.

[6] = biological target: T1, human CD73 on the cell surface (tumor …); experiment: flow cytometry, MFI, A375 cells expressing human CD73
Experimental: as §1

[7] = biological target: T1, human CD73 on the cell surface (tumor …); experiment: cell-based or functional assay

Row | MFI FC (fold change of mean fluorescence intensity) [1] [fold] | MFI FC (fold change of mean fluorescence intensity) [2] [fold] | EC50 [3] [µg/mL] | Kd [4] [nM] | koff [4] [s⁻¹] | kon [4] [M⁻¹ s⁻¹] | EC50 (read off the curve) [5] [µg/mL] | EC50 [6] [µg/mL] | IC50 of antibody inhibiting enzymatic activity of CD73 on surface of A375 cells (AMP/ATP CellTiter-Glo) [7] [µg/mL] | IC50 of antibody inhibiting enzymatic activity of CD73 on surface of MDA-MB-231 cells (AMP/ATP CellTiter-Glo) [7] [µg/mL] | Molecule
1 | 1.2 | 1 |  |  |  |  |  |  |  |  | Isotype control (IgG1-TM) (antibody)
2 |  |  | 0.99 | 0.21 | 6.24e-05 | 297000 | ~0.008 | 0.6 | 0.26 | 1 | humanized antibody 7002-01 (antibody, human IgG1, kappa, V domains shown) VH: QVQLQESGPGLVKPSQTLSLTCTVSGYSITSGYDWHWIRQHPGKGLEWMGYISYSGYTDYNPSLKSRITISHDTSKNQFSLKLSSVTAADTAVYYCTRGDHSYAMDYWGQGTLVTVSS VL: AIQMTQSHSSLSASVGDRVTITCKASQAVGTAVAWYQQKPGKSPKLLIYWASSRHTGVPSRFSGSRSGTDFTLTISSLQPEDFATYFCQQYSSYPLTFGGGTKVEIKR
